Here are results for 4 molecules from patent publication US20250152729A1 (CANCER RESEARCH TECHNOLOGY, published 2025).

The target of test [1] is T1, human SEMA4A expressed on cells (UniProt ID Q9H3S1, isoform 1) (human, UniProt Q9H3S1 33-761).
T1 construct: Cell-surface SEMA4A: endogenous on MM.1S, NCI-H929 and Karpas-25 cells, or expi293 cells transfected with Origene SC323738; also called human Semaphorin4A; SEMA4A endogenously expressed on MM.1S cells
T1 sequence: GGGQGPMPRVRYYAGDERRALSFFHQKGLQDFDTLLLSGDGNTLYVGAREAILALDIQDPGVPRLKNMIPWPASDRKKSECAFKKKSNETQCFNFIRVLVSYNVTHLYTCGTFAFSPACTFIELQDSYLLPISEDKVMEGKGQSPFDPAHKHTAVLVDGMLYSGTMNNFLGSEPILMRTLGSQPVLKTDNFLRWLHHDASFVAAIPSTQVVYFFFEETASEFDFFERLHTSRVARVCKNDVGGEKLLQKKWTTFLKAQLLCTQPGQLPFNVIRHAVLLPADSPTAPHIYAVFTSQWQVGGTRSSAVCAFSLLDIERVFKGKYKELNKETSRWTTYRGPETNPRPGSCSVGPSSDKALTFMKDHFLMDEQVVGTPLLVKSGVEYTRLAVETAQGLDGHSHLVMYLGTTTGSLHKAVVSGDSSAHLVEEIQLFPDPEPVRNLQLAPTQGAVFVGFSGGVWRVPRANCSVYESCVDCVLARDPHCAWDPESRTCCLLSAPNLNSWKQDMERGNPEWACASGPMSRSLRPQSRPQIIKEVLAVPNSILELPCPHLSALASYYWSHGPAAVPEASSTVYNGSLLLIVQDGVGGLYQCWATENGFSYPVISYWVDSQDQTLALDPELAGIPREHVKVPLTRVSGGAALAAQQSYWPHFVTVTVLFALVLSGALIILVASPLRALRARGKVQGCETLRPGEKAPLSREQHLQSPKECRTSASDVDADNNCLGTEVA
Put plainly: Mirrorball direct binding, dilution series on expi293 cells transiently transfected with human SEMA4A, anti-human Alexa Fluor 647. The text has this: (§1) Hits from the primary screening were re-formatted into the human Alya IgG1 vector and re-expressed and purified as described in section 4.1. In addition, a single clone was identified that contained an Asparagine deamidation motif (Asn Gly) within its VHCDR2. This potential sequence liability was de-risked by synthesising de novo two clonal variant VH genes (Asn Ala and Gln Gly) and cloning these sequences into the human Alya IgG1 expression vector. To determine the specificity profile of each purified human Alya IgG1, a dilution series was tested for binding to human SEMA4A, mouse SEMA4A, cyno SEMA4A, human SEMA4B and mock transfected cells (transient transfections set up in expi 293 cells.) The five assays employed methods described in section 2.3, using the appropriate cells and substituting the un-purified scFv periplasmic preparation with the recombinant human Alya IgG1 dilution series. Data was analysed as Count x median mean intensity (x FLU).

Test [2] concerns the target T2, mouse SEMA4A expressed on expi293 cells (UniProt ID Q62178) (mouse, UniProt Q62178 33-760).
T2 construct: Transient transfection in expi293 cells
T2 sequence: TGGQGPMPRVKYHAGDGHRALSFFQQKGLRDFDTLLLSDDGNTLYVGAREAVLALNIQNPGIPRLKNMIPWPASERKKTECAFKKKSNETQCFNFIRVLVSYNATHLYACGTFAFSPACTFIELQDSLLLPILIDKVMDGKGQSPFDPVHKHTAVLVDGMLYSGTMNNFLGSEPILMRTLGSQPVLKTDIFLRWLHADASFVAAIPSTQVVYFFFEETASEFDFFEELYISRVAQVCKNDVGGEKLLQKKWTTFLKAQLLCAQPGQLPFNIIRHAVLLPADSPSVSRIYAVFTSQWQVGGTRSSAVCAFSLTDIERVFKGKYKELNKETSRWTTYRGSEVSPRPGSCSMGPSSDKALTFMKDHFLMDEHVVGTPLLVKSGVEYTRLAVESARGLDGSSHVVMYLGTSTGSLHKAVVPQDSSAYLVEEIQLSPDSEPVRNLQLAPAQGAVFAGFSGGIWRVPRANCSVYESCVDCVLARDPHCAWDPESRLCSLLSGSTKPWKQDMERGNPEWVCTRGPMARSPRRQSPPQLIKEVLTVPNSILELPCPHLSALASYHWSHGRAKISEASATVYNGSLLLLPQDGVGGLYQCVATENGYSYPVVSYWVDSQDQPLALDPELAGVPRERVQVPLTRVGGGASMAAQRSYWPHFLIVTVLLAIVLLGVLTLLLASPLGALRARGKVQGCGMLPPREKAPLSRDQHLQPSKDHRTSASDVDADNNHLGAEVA
In words: Mirrorball direct binding, dilution series on expi293 cells transiently transfected with mouse SEMA4A, anti-human Alexa Fluor 647.
Description: as §1

The target of test [3] is T3, cynomolgus SEMA4A expressed on expi293 cells (UniProt ID G7NV79) (cynomolgus, UniProt Q9H3S1 33-761 (human entry)).
T3 construct: Transient transfection in expi293 cells; also called cyno SEMA4A
T3 chain: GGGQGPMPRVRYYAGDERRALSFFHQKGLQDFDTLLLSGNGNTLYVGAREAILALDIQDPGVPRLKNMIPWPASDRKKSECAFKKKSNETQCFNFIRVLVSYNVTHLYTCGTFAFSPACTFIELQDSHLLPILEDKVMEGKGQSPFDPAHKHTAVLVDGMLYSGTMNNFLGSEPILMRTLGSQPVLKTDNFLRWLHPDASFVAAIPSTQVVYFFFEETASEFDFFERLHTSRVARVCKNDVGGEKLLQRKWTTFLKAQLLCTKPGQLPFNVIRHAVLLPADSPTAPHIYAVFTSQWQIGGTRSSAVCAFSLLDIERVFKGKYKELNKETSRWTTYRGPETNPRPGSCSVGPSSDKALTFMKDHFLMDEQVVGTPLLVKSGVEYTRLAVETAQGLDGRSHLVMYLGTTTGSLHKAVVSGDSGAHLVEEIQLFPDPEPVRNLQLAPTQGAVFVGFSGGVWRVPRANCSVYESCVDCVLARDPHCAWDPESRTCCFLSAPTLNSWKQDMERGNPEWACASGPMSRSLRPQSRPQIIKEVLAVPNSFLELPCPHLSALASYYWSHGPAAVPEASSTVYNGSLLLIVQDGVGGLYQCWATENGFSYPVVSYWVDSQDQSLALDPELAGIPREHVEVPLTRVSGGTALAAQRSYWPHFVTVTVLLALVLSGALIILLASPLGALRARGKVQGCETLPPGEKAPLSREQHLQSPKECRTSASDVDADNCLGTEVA
In words: Mirrorball direct binding, dilution series on expi293 cells transiently transfected with cynomolgus SEMA4A, anti-human Alexa Fluor 647.
Description: as §1

Test [4] addresses T4, human SEMA4B expressed on expi293 cells (human, UniProt Q9NPR2 44-837).
T4 construct: whole, on cells
T4 sequence (looked up): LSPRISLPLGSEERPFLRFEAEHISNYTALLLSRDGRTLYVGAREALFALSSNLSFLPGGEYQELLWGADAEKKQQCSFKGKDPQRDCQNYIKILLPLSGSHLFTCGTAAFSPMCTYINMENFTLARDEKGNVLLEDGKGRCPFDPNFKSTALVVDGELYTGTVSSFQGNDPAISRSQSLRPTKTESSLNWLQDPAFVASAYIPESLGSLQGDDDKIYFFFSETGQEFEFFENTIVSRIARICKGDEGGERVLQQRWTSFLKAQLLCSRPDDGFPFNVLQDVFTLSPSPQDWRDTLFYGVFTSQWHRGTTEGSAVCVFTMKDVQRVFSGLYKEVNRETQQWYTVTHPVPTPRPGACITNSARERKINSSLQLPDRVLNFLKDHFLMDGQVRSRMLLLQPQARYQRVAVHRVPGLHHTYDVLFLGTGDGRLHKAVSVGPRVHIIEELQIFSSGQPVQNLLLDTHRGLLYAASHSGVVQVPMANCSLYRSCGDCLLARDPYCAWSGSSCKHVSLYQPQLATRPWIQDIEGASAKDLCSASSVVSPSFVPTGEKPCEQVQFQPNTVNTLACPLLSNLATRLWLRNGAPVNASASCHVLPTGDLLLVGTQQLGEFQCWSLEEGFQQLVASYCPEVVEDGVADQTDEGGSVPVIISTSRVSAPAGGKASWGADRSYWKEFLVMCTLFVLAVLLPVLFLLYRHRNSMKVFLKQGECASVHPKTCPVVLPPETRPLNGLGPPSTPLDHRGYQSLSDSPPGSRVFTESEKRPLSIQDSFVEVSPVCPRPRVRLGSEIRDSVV
In words: Mirrorball direct binding, dilution series on expi293 cells transiently transfected with human SEMA4B, anti-human Alexa Fluor 647.
Description: as §1

In test [5] the target is T1, human SEMA4A expressed on cells …. Put plainly: cell-based or functional assay.
The target is the same in test [6]. Put plainly: cell-based or functional assay. This is another data set of the same source.
For test [7] the target is unchanged. Put plainly: cell-based or functional assay. This is another data set of the same source.
For test [8] the target is unchanged. Put plainly: flow cytometry on NCI-H929 cells endogenously expressing human SEMA4A, 10-point titration. As to the method:
Binding of SEMA4A specific IgGs to membrane-bound SEMA4A was evaluated using flow cytometry in NCI-H929 cells that endogenously express human SEMA4A. Binding assays were performed by incubating the anti-SEMA4A antibodies with 200,000 cells for 3 hours at 4° C. followed by two washes with PBS, 1% (w/v) BSA (FACS buffer). A range of antibody concentrations were evaluated using a 10-point, 3-fold dilution series. Cells were then incubated with Alexa Fluor 647 conjugated AffiniPure Fab Fragment Goat Anti-Human IgG (H+L) (Jackson Immunoresearch Europe Limited, Ely, Cambridgeshire) diluted 1:100, at 4° C. for 1 hour, followed by two washes in FACS buffer. Cells were then stained with LIVE/DEAD™ Fixable Violet Dead Cell Stain (Life Technologies, L34955) for 30 minutes at 4° C., followed by two washes in FACS buffer. Cells were then fixed using BD Cell Fix (BD Biosciences, 340181). Fluorescence of live, single cells was measured using a Novocyte™ 3000 flow cytometer and Novoexpress software (Acea Biosciences, Inc, San Diego, CA). Data were analysed using FlowJo software (FlowJo, LLC, Ashland, OR). Mean fluorescence intensity values were plotted against antibody conjugate concentrations and KD values determined using Prism software (GraphPad Software Inc, La Jolla, CA).
Background: Flow cytometry measures light scatter and fluorescence of single cells or particles in a stream.

The target in test [9] is T4, human SEMA4B expressed on expi293 cells. In words: Mirrorball direct binding, dilution series on expi293 cells transiently transfected with human SEMA4B, anti-human Alexa Fluor 647. As to the method: To determine the specificity profile of each purified human Alya IgG1 conjugated to McMMAF, a dilution series was tested for binding to human SEMA4A, human SEMA4B and mock transfected cells (transient transfections set up in expi 293 cells.) The three assays employed methods described in section 2.3, using the appropriate cells and substituting the un-purified scFv periplasmic preparation with the human Alya IgG1 conjugated to McMMAF. Data was analysed as Count x median mean intensity (x FLU).
The source holds these as a separate data set.

Numbering of substitutions follows the chain as printed. Names and notes keep the numbering of the source. Like-named read-outs stand apart in the source and are kept apart here.

B1: C0120923 (antibody, V domains shown)
VH: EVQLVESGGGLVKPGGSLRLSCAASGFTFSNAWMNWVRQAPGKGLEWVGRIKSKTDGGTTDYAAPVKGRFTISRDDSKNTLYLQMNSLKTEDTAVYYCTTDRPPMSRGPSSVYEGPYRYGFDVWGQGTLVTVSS
VL: NFMLTQPHSVSESPGKTVTISCTGSGGNIVDNFVQWHQQRPGSSPTTVIYEDDQRPSGVPDRFSASVDSSSNSGSLTISGLKTEDEADYYCQSYDGANRWVFGGGTKLTVL
modifications: 239iCys and S442C (EU numbering) in the constant region
notes: one of the 6 germlined clones of m49; purified, unconjugated; also called C0120923 germlined human Alya IgG1
For the molecule B1, the binding result was “binds” in [1], “binds” in test [2], “binds” in test [3] and “no binding (tested: log (M) -8 (1e-8 M))” in test [4].

B2: mouse 5E3 as human Alya IgG1 conjugated to McMMAF (antibody, V domains shown)
VH: QVQLQQPGAELVMPGASVKMSCKASGYTFTDYWMHWVKQRPGQGLEWIGAIDTSDSYTSYNQKFKGKATLTVDESSSTAYMQLSSLTSEDSAVYYCARDYGNFYYYAMDYWGQGTSVTVSS
VL: QAVVTQESALTTSPGETVTLTCRSSTGAVTTSNYANWVQEKPDHLFTGLIGGTNNRAPGVPARFSGSLIGDKAALTITGAQTEDEAIYFCALWYSNHWVFGGGTKLTVL
modifications: McMMAF on the engineered cysteines 239iCys and S442C (EU numbering) of the heavy constant region
notes: Antibody-drug conjugate; human IgG1 Alya constant, drug-to-antibody ratio of four; also called Mouse 5E3-McMMAF
Consider B2, for which, in [5], the “Average KARPAS 25 IC50 [pM], cell kill” value was determined as 126 pM; the “Average MM1.S IC50 [pM], cell kill” value was 5.95 pM; the “Average NCI-H929 IC50 [pM], cell kill” value was determined as 7.53 pM. Besides, in [6], the “Average MM1.S IC50 [pM], cell kill” value is 5.8 pM and the “Average NCI-H929 IC50 [pM], cell kill” value was determined as 5.1 pM. Further, in test [7], the “EC50 (nM), Fab-pHast internalisation into NCI-H929” value turned out to be 0.25 nM and the “Fold-Change at 6 hours (10 nM), Fab-pHast internalisation” value stood at 160 fold. Besides, the Kd – broadly, the constant that tells how readily two partners part at equilibrium – in test [8] amounted to 3.18 nM. In addition, in test [9], the binding result is reported as “no binding (tested: log (M) -8 (1e-8 M))”.

B3: C0120920 (antibody, V domains shown)
VH: EVQLVQSGPEVKKPGASVKISCKASGYKLNDPGVHGVSWVRQAPGQGLEWMGWISTLNADTRYAQKFQGRVTMATDSSTSTIYMDLRSLKSDDTALYYCARDDYTAIFDFWGRGTLVTVSS
VL: QSVLTQPPSVSVAPGQTASITCGGSNIGSQSVHWYQQKPGQAPVLVVYDDSDRPSGIPERFSGSKSGNTASLILSRVEAGDEADYYCQVWDSSTDHHVFGTGTKVTVL
modifications: 239iCys and S442C (EU numbering) in the constant region
notes: purified, unconjugated; also called C0120920 human Alya IgG1 (unconjugated)
In the case of B3, the binding result is on record as “binds” in test [1], “binds” in test [2] and “no binding (tested: log (M) -8 (1e-8 M))” in test [4].

B4: C0120921 (antibody, V domains shown)
VH: B3 VH with N58Q, A59G
VL: B3 VL
modifications: 239iCys and S442C (EU numbering) in the constant region
notes: purified, unconjugated; also called C0120921 human Alya IgG1 (unconjugated)
For B4, the binding result in [1] is listed as “binds”; in [2] it was “binds”; in test [4], “no binding (tested: log (M) -8 (1e-8 M))”.
